In patent US20140242093A1, “METHODS AND COMPOSITIONS FOR MODULATING THE INNATE IMMUNE RESPONSE AND/OR MYOGENESIS IN A MAMMALIAN SUBJECT” (FRED HUTCHINSON CANCER RESEARCH CENTER, priority 2011, published 2014):

Tested on: control human primary myoblasts
Assay: Expression microarray of primary myoblasts transduced with lentivirus carrying DUX4-fl, DUX4-s or GFP
Procedure: Primary human myoblasts were collected and cultured as previously described (Snider et al., 2010). Primary myoblasts were maintained at or below 70% confluency for proliferation. For differentiation, cells were allowed to reach 95-100% confluency in growth medium. Once confluency was reached, the cells were changed to differentiation medium (F10 media supplemented with 1% horse serum, 10 μg/mL insulin, and 10 μg/mL transferrin, penicillin/streptomycin) and maintained for 4 days. Human RD cells were grown in DMEM in 10% bovine calf serum (Hyclone) and penicillin/streptomycin. The primary myoblasts were transduced with lentivirus carrying DUX-fl, DUX4- or GFP (MOI=15).
Expression microarrays were performed on the transduced cells at 24 hours after transduction as follows. […] Samples were analyzed by Illumina Human Whole Genome microarrays. Probe intensities were corrected, normalized, and summarized by the Lumi package of Bioconductor (Du et al., 2008). Differentially expressed genes were identified by the LIMMA package of Bioconductor (Wettenhall and Smyth, 2004). Gene set enrichment analysis (GSEA) was performed using the Bioconductor GOstats package (Falcon and Gentleman, 2007).

B1: DUX4-s: short splice form of DUX4 (SEQ ID NO:112), keeps the double-homeobox domains, lacks the C-terminal activation domain (protein, listed as Homo sapiens)
chain: MALPTPSDSTLPAEARGRGRRRRLVWTPSQSEALRACFERNPYPGIATRERLAQAIGIPEPRVQIWFQNERSRQLRQHRRESRPWPGRRGPPEGRRKRTAVTGSQTALLLRAFEKDRFPGIAAREELARETGLPESRIQIWFQNRRARHPGQGGRAPAQV
MYBPHL expression fc (cultured human skeletal muscle): −0.5205 | MYF5 expression fc (cultured human skeletal muscle): 0.291 | MYH13 expression fc (cultured human skeletal muscle): −1.541 | NACC2 expression fc (cultured human skeletal muscle): 0.9823 | NFIL3 expression fc (cultured human skeletal muscle): 0.3195 | NFKB1 expression fc (cultured human skeletal muscle): 0.05546 | NFKBIZ expression fc (cultured human skeletal muscle): −0.2644 | NINJ1 expression fc (cultured human skeletal muscle): 0.2107 | NPTX2 expression fc (cultured human skeletal muscle): 0.122 | NRXN2 expression fc (cultured human skeletal muscle): −0.2444 | NT5E expression fc (cultured human skeletal muscle): 0.489 | OCEL1 expression fc (cultured human skeletal muscle): −0.0991 | P2RX6 expression fc (cultured human skeletal muscle): −0.7432 | PARP3 expression fc (cultured human skeletal muscle): 0.1606 | PCK2 expression fc (cultured human skeletal muscle): 0.4194 | PCTK3 expression fc (cultured human skeletal muscle): 0.5932 | PDK4 expression fc (cultured human skeletal muscle): 0.02699 | PDPN expression fc (cultured human skeletal muscle): −0.2902 | PFKFB4 expression fc (cultured human skeletal muscle): 0.4582 | PHF15 expression fc (cultured human skeletal muscle): 0.2557 | PHLDA3 expression fc (cultured human skeletal muscle): 0.1958 | PLA2G4C expression fc (cultured human skeletal muscle): 0.07403 | PLEKHA4 expression fc (cultured human skeletal muscle): 1.33 | PLIN2 expression fc (cultured human skeletal muscle): 0.6107 | PLXNB1 expression fc (cultured human skeletal muscle): −0.09843 | PLXNB2 expression fc (cultured human skeletal muscle): 0.2031 | PPAP2B expression fc (cultured human skeletal muscle): 0.05885 | PPP3CC expression fc (cultured human skeletal muscle): 0.2562 | PRDM1 expression fc (cultured human skeletal muscle): −0.09376 | PRKCD expression fc (cultured human skeletal muscle): 0.349 | PSMB10 expression fc (cultured human skeletal muscle): 0.7464 | PSME2 expression fc (cultured human skeletal muscle): 0.4304 | PTGES expression fc (cultured human skeletal muscle): 0.3116 | PTPRU expression fc (cultured human skeletal muscle): 0.2612 | RALGDS expression fc (cultured human skeletal muscle): 0.0686 | RBCK1 expression fc (cultured human skeletal muscle): 0.326 | RBM43 expression fc (cultured human skeletal muscle): 0.3215 | RCAN1 expression fc (cultured human skeletal muscle): 0.9917 | RELB expression fc (cultured human skeletal muscle): 0.2914 | RGS20 expression fc (cultured human skeletal muscle): 0.08652 | RHBDF2 expression fc (cultured human skeletal muscle): 0.3815 | RRAS expression fc (cultured human skeletal muscle): −0.1908 | RRBP1 expression fc (cultured human skeletal muscle): 0.09904 | RTKN expression fc (cultured human skeletal muscle): −0.2678 | RTTN expression fc (cultured human skeletal muscle): 0.009387 | RUSC1 expression fc (cultured human skeletal muscle): 0.03464 | SERPING1 expression fc (cultured human skeletal muscle): 1.214 | SESN1 expression fc (cultured human skeletal muscle): −0.1133 | SHISA5 expression fc (cultured human skeletal muscle): −0.2735 | SIX5 expression fc (cultured human skeletal muscle): −0.3614 | SLC16A3 expression fc (cultured human skeletal muscle): 0.4873 | SLC22A18 expression fc (cultured human skeletal muscle): −0.05235 | SLC25A28 expression fc (cultured human skeletal muscle): 0.7251 | SLC39A14 expression fc (cultured human skeletal muscle): 0.4801 | SPTLC3 expression fc (cultured human skeletal muscle): 0.2428 | SQSTM1 expression fc (cultured human skeletal muscle): 0.1771 | SRGN expression fc (cultured human skeletal muscle): 0.2031 | STC1 expression fc (cultured human skeletal muscle): 0.8132 | STEAP3 expression fc (cultured human skeletal muscle): −0.291 | SUSD2 expression fc (cultured human skeletal muscle): −2.022 | TAPBP expression fc (cultured human skeletal muscle): 0.474 | TCEA3 expression fc (cultured human skeletal muscle): −0.1206 | TCP11L1 expression fc (cultured human skeletal muscle): 0.7816 | TMEM45A expression fc (cultured human skeletal muscle): 0.4128 | TMEM173 expression fc (cultured human skeletal muscle): 0.3673 | TNFAIP2 expression fc (cultured human skeletal muscle): 0.05713 | TNFRSF1A expression fc (cultured human skeletal muscle): 0.2727 | TNFRSF6B expression fc (cultured human skeletal muscle): 0.00925 | TNFSF13B expression fc (cultured human skeletal muscle): 2.19 | TNS3 expression fc (cultured human skeletal muscle): −0.1648 | TRAF3IP2 expression fc (cultured human skeletal muscle): 0.7299 | TRIP6 expression fc (cultured human skeletal muscle): 0.003438 | TRNP1 expression fc (cultured human skeletal muscle): 0.007844 | TSC22D3 expression fc (cultured human skeletal muscle): 0.2002 | VASN expression fc (cultured human skeletal muscle): 0.2877 | VEZF1 expression fc (cultured human skeletal muscle): −0.6876 | XBP1 expression fc (cultured human skeletal muscle): 0.3357 | ZBTB4 expression fc (cultured human skeletal muscle): 0.002479 | ZC3H12A expression fc (cultured human skeletal muscle): 0.5426 | ZFHX3 expression fc (cultured human skeletal muscle): 0.5029 | ZFP36L2 expression fc (cultured human skeletal muscle): 0.7338 | ZFP90 expression fc (cultured human skeletal muscle): −0.1973 | ZNF337 expression fc (cultured human skeletal muscle): −0.04356 | ZNF395 expression fc (cultured human skeletal muscle): 0.2584 | Log2 Fc AMACR (vs lenti-GFP, 24 h): 0.1 log2 | Log2 Fc ARIH1 (vs lenti-GFP, 24 h): 0.8 log2 | Log2 Fc ARS2 (vs lenti-GFP, 24 h): −0.2 log2 | Log2 Fc CBARA1 (vs lenti-GFP, 24 h): −0.2 log2 | Log2 Fc CD24 (vs lenti-GFP, 24 h): −0.4 log2 | Log2 Fc CSAG3 (vs lenti-GFP, 24 h): 0.1 log2 | Log2 Fc CSE1L (vs lenti-GFP, 24 h): 0.1 log2 | Log2 Fc CWC15 (vs lenti-GFP, 24 h): 0.1 log2 | Log2 Fc CXADR (vs lenti-GFP, 24 h): −0.1 log2 | Log2 Fc CXCR4 (vs lenti-GFP, 24 h): −0.1 log2 | Log2 Fc DBR1 (vs lenti-GFP, 24 h): 0.2 log2 | Log2 Fc DEFB103B (vs lenti-GFP, 24 h): 0.1 log2 | Log2 Fc FBXO33 (vs lenti-GFP, 24 h): 0.2 log2 | Log2 Fc FGFR3 (vs lenti-GFP, 24 h): 0.0 log2 | Log2 Fc FLJ45337 (vs lenti-GFP, 24 h): −0.2 log2 | Log2 Fc GTF2F1 (vs lenti-GFP, 24 h): 0.3 log2 | Log2 Fc HNRNPCL1 (vs lenti-GFP, 24 h): −0.1 log2 | Log2 Fc HOXB2 (vs lenti-GFP, 24 h): 0.0 log2 | Log2 Fc HSPA2 (vs lenti-GFP, 24 h): −0.3 log2 | Log2 Fc ID2 (vs lenti-GFP, 24 h): 0.3 log2 | Log2 Fc IFRD1 (vs lenti-GFP, 24 h): −0.2 log2 | Log2 Fc JUP (vs lenti-GFP, 24 h): −0.1 log2 | Log2 Fc KHDC1L (vs lenti-GFP, 24 h): −0.1 log2 | Log2 Fc MBD3L2 (vs lenti-GFP, 24 h): 0.0 log2 | Log2 Fc MED26 (vs lenti-GFP, 24 h): 0.1 log2 | Log2 Fc MGC10997 (vs lenti-GFP, 24 h): −0.3 log2 | Log2 Fc PABPN1 (vs lenti-GFP, 24 h): −0.3 log2 | Log2 Fc PELI1 (vs lenti-GFP, 24 h): 0.1 log2 | Log2 Fc PNMA6B (vs lenti-GFP, 24 h): −0.2 log2 | Log2 Fc PRAMEF1 (vs lenti-GFP, 24 h): 0.1 log2 | Log2 Fc PVRL3 (vs lenti-GFP, 24 h): 0.4 log2 | Log2 Fc RMRP (vs lenti-GFP, 24 h): 0.1 log2 | Log2 Fc RNGTT (vs lenti-GFP, 24 h): −0.6 log2 | Log2 Fc RPPH1 (vs lenti-GFP, 24 h): 0.2 log2 | Log2 Fc RRN3 (vs lenti-GFP, 24 h): 0.1 log2 | Log2 Fc SFRS2B (vs lenti-GFP, 24 h): −0.3 log2 | Log2 Fc SFRS17A (vs lenti-GFP, 24 h): 0.2 log2 | Log2 Fc SIAH1 (vs lenti-GFP, 24 h): −0.1 log2 | Log2 Fc SLC2A14 (vs lenti-GFP, 24 h): 0.2 log2 | Log2 Fc SLC34A2 (vs lenti-GFP, 24 h): 0.0 log2 | Log2 Fc SNIP1 (vs lenti-GFP, 24 h): −0.2 log2 | Log2 Fc SON (vs lenti-GFP, 24 h): −0.3 log2 | Log2 Fc SPRYD5 (vs lenti-GFP, 24 h): −0.1 log2 | Log2 Fc SPTY2D1 (vs lenti-GFP, 24 h): −0.3 log2 | Log2 Fc TFIP11 (vs lenti-GFP, 24 h): 0.1 log2 | Log2 Fc THOC4 (vs lenti-GFP, 24 h): −0.2 log2 | Log2 Fc TPRX1 (vs lenti-GFP, 24 h): −0.1 log2 | Log2 Fc TRIM23 (vs lenti-GFP, 24 h): 0.6 log2 | Log2 Fc TRIM43 (vs lenti-GFP, 24 h): 0.0 log2 | Log2 Fc USP29 (vs lenti-GFP, 24 h): −0.1 log2 | Log2 Fc ZNF217 (vs lenti-GFP, 24 h): −0.3 log2 | Log2 Fc ZNF705A (vs lenti-GFP, 24 h): −0.1 log2 | Log2 Fc ZNHIT6 (vs lenti-GFP, 24 h): 0.3 log2 | Log2 Fc ZSCAN2 (vs lenti-GFP, 24 h): −0.2 log2 | Log2 Fc ZSCAN4 (vs lenti-GFP, 24 h): 0.0 log2
